In patent publication US20260098059A1 (ENDOMET BIOSCIENCES, published 2026):
Where “and” joins values, the source holds several entries; their conditions need not be identical. Equal entries are not always repeated. Bridges are numbered along the chain shown (N, C = ends). Primed or numbered codes have the meaning given here. [ ]: non-standard residue; d: D form. αMeF = C[C@](N)(Cc1ccccc1)C(=O)O; Bz′ = not defined here; Ppa = not defined here

T1: β-catenin (UniProt P35222 134-665, limits assumed, biotinylated in the SPR and plate assays)
T1 sequence (looked up): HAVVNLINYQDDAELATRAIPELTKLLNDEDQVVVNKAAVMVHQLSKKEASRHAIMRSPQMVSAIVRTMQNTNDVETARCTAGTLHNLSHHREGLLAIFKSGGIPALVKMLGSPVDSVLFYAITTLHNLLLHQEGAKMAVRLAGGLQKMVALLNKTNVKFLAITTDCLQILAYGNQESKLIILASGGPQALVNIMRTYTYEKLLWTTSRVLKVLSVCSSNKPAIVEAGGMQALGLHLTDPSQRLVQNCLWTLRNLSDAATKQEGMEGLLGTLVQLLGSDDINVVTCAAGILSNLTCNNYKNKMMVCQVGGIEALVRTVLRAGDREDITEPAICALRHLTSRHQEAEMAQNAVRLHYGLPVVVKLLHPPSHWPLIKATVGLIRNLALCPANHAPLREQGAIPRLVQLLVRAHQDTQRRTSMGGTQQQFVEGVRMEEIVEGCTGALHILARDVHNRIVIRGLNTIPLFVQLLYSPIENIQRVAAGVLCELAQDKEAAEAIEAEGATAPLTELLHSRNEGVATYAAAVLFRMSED

B1: SEQ ID NO: 190 (peptide)
peptide: [Ado]MWFLICFWD-OH
modifications: lactam N-10
B2: SEQ ID NO: 176 (peptide)
peptide: DWFLICFWKG
HELM: PEPTIDE1{D.W.F.L.I.C.F.W.K.G}$PEPTIDE1,PEPTIDE1,1:R3-9:R3$$$V2.0
SMILES: CC[C@H](C)[C@@H]1NC(=O)[C@H](CC(C)C)NC(=O)[C@H](Cc2ccccc2)NC(=O)[C@H](Cc2c[nH]c3ccccc23)NC(=O)[C@@H](N)CC(=O)NCCCC[C@@H](C(=O)NCC(=O)O)NC(=O)[C@H](Cc2c[nH]c3ccccc23)NC(=O)[C@H](Cc2ccccc2)NC(=O)[C@H](CS)NC1=O
B3: SEQ ID NO: 404 (peptide)
peptide: WAQKILDEHGQRVWG
HELM: PEPTIDE1{[ac].W.[meA].Q.K.I.L.D.E.H.[O=C([C@@H](N[*:1])C1CCCCC1)[*:2]].Q.R.V.W.G.[am]}$PEPTIDE1,PEPTIDE1,5:R3-9:R3$$$V2.0
SMILES: CC[C@H](C)[C@@H]1NC(=O)[C@@H](NC(=O)[C@H](CCC(N)=O)NC(=O)[C@H](C)N(C)C(=O)[C@H](Cc2c[nH]c3ccccc23)NC(C)=O)CCCCNC(=O)CC[C@@H](C(=O)N[C@@H](Cc2c[nH]cn2)C(=O)N[C@H](C(=O)N[C@@H](CCC(N)=O)C(=O)N[C@@H](CCCNC(=N)N)C(=O)N[C@H](C(=O)N[C@@H](Cc2c[nH]c3ccccc23)C(=O)NCC(N)=O)C(C)C)C2CCCCC2)NC(=O)[C@H](CC(=O)O)NC(=O)[C@H](CC(C)C)NC1=O
B4: SEQ ID NO: 401 (peptide)
peptide: WAQKILDEHVQRVWG
HELM: PEPTIDE1{W.[meA].Q.K.I.L.D.E.H.V.Q.R.V.W.G.[am]}$PEPTIDE1,PEPTIDE1,4:R3-8:R3$$$V2.0
SMILES: CC[C@H](C)[C@@H]1NC(=O)[C@@H](NC(=O)[C@H](CCC(N)=O)NC(=O)[C@H](C)N(C)C(=O)[C@@H](N)Cc2c[nH]c3ccccc23)CCCCNC(=O)CC[C@@H](C(=O)N[C@@H](Cc2c[nH]cn2)C(=O)N[C@H](C(=O)N[C@@H](CCC(N)=O)C(=O)N[C@@H](CCCNC(=N)N)C(=O)N[C@H](C(=O)N[C@@H](Cc2c[nH]c3ccccc23)C(=O)NCC(N)=O)C(C)C)C(C)C)NC(=O)[C@H](CC(=O)O)NC(=O)[C@H](CC(C)C)NC1=O
B5: SEQ ID NO: 189 (peptide)
peptide: XMWFLICFWD
HELM: PEPTIDE1{[O=C(CCCCCN[*:1])[*:2]].M.W.F.L.I.C.F.W.D}$PEPTIDE1,PEPTIDE1,1:R1-10:R3$$$V2.0
SMILES: CC[C@H](C)[C@@H]1NC(=O)[C@H](CC(C)C)NC(=O)[C@H](Cc2ccccc2)NC(=O)[C@H](Cc2c[nH]c3ccccc23)NC(=O)[C@H](CCSC)NC(=O)CCCCCNC(=O)C[C@@H](C(=O)O)NC(=O)[C@H](Cc2c[nH]c3ccccc23)NC(=O)[C@H](Cc2ccccc2)NC(=O)[C@H](CS)NC1=O
B6: SEQ ID NO: 192 (peptide)
peptide: XMWFLICAWD
HELM: PEPTIDE1{[O=C(CCCCCN[*:1])[*:2]].M.W.F.L.I.C.A.W.D}$PEPTIDE1,PEPTIDE1,1:R1-10:R3$$$V2.0
SMILES: CC[C@H](C)[C@@H]1NC(=O)[C@H](CC(C)C)NC(=O)[C@H](Cc2ccccc2)NC(=O)[C@H](Cc2c[nH]c3ccccc23)NC(=O)[C@H](CCSC)NC(=O)CCCCCNC(=O)C[C@@H](C(=O)O)NC(=O)[C@H](Cc2c[nH]c3ccccc23)NC(=O)[C@H](C)NC(=O)[C@H](CS)NC1=O
B7: SEQ ID NO: 193 (peptide)
peptide: [Ado]MWFLICAWD-OH
modifications: lactam N-10
B8: SEQ ID NO: 196 (peptide)
peptide: Ac-WFLIAFWG-OH
B9: SEQ ID NO: 194 (peptide)
peptide: Ac-WFLICFWG-OH
B10: SEQ ID NO: 195 (peptide)
peptide: Ac-WILISFWG-OH
B11: SEQ ID NO: 220 (peptide)
peptide: Ac-WFLISFWG-OH
notes: also called Hit 5
B12: Peptide 2 (SEQ ID NO: 215) (peptide)
peptide: KLWALIXAWD
HELM: PEPTIDE1{[ac].K.[Nle].W.[Cha].L.I.[Abu].A.W.D}$PEPTIDE1,PEPTIDE1,2:R3-11:R3$$$V2.0
SMILES: CCCC[C@@H]1NC(=O)[C@@H](NC(C)=O)CCCCNC(=O)C[C@@H](C(=O)O)NC(=O)[C@H](Cc2c[nH]c3ccccc23)NC(=O)[C@H](C)NC(=O)[C@H](CC)NC(=O)[C@H]([C@@H](C)CC)NC(=O)[C@H](CC(C)C)NC(=O)[C@H](CC2CCCCC2)NC(=O)[C@H](Cc2c[nH]c3ccccc23)NC1=O
notes: also called Cyclo-acetyl-K*Nle-W-3-cyclohexyl-L-alanine-LI-(amino butyric acid-AWD*-COOH)
B13: SEQ ID NO: 37 (peptide)
peptide: WWESILDEHVQRVWG
HELM: PEPTIDE1{[meW].[meW].E.S.I.L.D.E.H.V.Q.R.V.W.G.[am]}$$$$V2.0
SMILES: CC[C@H](C)[C@H](NC(=O)[C@H](CO)NC(=O)[C@H](CCC(=O)O)NC(=O)[C@H](Cc1c[nH]c2ccccc12)N(C)C(=O)[C@H](Cc1c[nH]c2ccccc12)NC)C(=O)N[C@@H](CC(C)C)C(=O)N[C@@H](CC(=O)O)C(=O)N[C@@H](CCC(=O)O)C(=O)N[C@@H](Cc1c[nH]cn1)C(=O)N[C@H](C(=O)N[C@@H](CCC(N)=O)C(=O)N[C@@H](CCCNC(=N)N)C(=O)N[C@H](C(=O)N[C@@H](Cc1c[nH]c2ccccc12)C(=O)NCC(N)=O)C(C)C)C(C)C
B14: SEQ ID NO: 223 (peptide)
peptide: {Bz′}-MWILISFWG-OH
B15: SEQ ID NO: 224 (peptide)
peptide: Ppa-MWILISFWG-OH
modifications: reading uncertain; also: printed as Ppa-MWILISFWG-COOH
notes: also called Hit 2
B16: SEQ ID NO: 225 (peptide)
peptide: MWILISFWG
HELM: PEPTIDE1{[CC(C)(C)C(=O)[*:2]].M.W.I.L.I.S.F.W.G}$$$$V2.0
SMILES: CC[C@H](C)[C@H](NC(=O)[C@H](CC(C)C)NC(=O)[C@@H](NC(=O)[C@H](Cc1c[nH]c2ccccc12)NC(=O)[C@H](CCSC)NC(=O)C(C)(C)C)[C@@H](C)CC)C(=O)N[C@@H](CO)C(=O)N[C@@H](Cc1ccccc1)C(=O)N[C@@H](Cc1c[nH]c2ccccc12)C(=O)NCC(=O)O
B17: SEQ ID NO: 175 (peptide)
peptide: DWFLICFWKG
HELM: PEPTIDE1{[ac].D.W.F.L.I.C.F.W.K.G}$PEPTIDE1,PEPTIDE1,2:R3-10:R3$$$V2.0
SMILES: CC[C@H](C)[C@@H]1NC(=O)[C@H](CC(C)C)NC(=O)[C@H](Cc2ccccc2)NC(=O)[C@H](Cc2c[nH]c3ccccc23)NC(=O)[C@@H](NC(C)=O)CC(=O)NCCCC[C@@H](C(=O)NCC(=O)O)NC(=O)[C@H](Cc2c[nH]c3ccccc23)NC(=O)[C@H](Cc2ccccc2)NC(=O)[C@H](CS)NC1=O
B18: SEQ ID NO: 133 (peptide)
peptide: H-MW[αMeF]LISFWG-OH
B19: SEQ ID NO: 261 (peptide)
peptide: KWALIXAWD
HELM: PEPTIDE1{[ac].K.W.[Cha].L.I.[Abu].A.W.D}$PEPTIDE1,PEPTIDE1,2:R3-10:R3$$$V2.0
SMILES: CC[C@@H]1NC(=O)[C@H]([C@@H](C)CC)NC(=O)[C@H](CC(C)C)NC(=O)[C@H](CC2CCCCC2)NC(=O)[C@H](Cc2c[nH]c3ccccc23)NC(=O)[C@@H](NC(C)=O)CCCCNC(=O)C[C@@H](C(=O)O)NC(=O)[C@H](Cc2c[nH]c3ccccc23)NC(=O)[C@H](C)NC1=O
B20: SEQ ID NO: 262 (peptide)
peptide: KWGLIXAWD
HELM: PEPTIDE1{[ac].K.W.[O=C([C@@H](N[*:1])C1CCCCC1)[*:2]].L.I.[Abu].A.W.D}$PEPTIDE1,PEPTIDE1,2:R3-10:R3$$$V2.0
SMILES: CC[C@@H]1NC(=O)[C@H]([C@@H](C)CC)NC(=O)[C@H](CC(C)C)NC(=O)[C@H](C2CCCCC2)NC(=O)[C@H](Cc2c[nH]c3ccccc23)NC(=O)[C@@H](NC(C)=O)CCCCNC(=O)C[C@@H](C(=O)O)NC(=O)[C@H](Cc2c[nH]c3ccccc23)NC(=O)[C@H](C)NC1=O
B21: SEQ ID NO: 219 (peptide)
peptide: Ac-MWFLISFWG-OH

biological target: T1, β-catenin; assay: cell-based or functional assay

| Binder | Wnt Reporter EC50 | Proliferation IC50, Endo cells [µM] | Proliferation IC50, Wnt dependent cells [µM] |
| --- | --- | --- | --- |
| B1 | ≤ 7.5 µM | – | – |
| B2 | > 7.5 µM and ≤ 15 µM | – | – |
| B3 | > 30 µM | – | – |
| B4 | > 30 µM | – | – |
| B5 | ≤ 7.5 µM | – | – |
| B6 | ≤ 7.5 µM | – | – |
| B7 | ≤ 7.5 µM | – | – |
| B8 | ≤ 7.5 µM | – | – |
| B9 | ≤ 7.5 µM | – | – |
| B10 | ≤ 7.5 µM | – | – |
| B11 | ≤ 7.5 µM | – | – |
| B12 | > 30 µM | > 30 | – |
| B13 | > 30 µM | – | – |
| B14 | ≤ 7.5 µM | – | – |
| B15 | ≤ 7.5 µM | – | – |
| B16 | ≤ 7.5 µM | – | – |
| B17 | > 7.5 µM and ≤ 15 µM | – | – |
| B18 | > 30 µM | – | – |
| B19 | > 7.5 µM and ≤ 15 µM | 7.7 | 4 |
| B20 | – | 26.3 | 5 |
| B21 | ≤ 7.5 µM | – | – |

biological target: T1, β-catenin; assay: competitive FP
Outline: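 Competitive fluorescence polarization with inhibitor peptide serially diluted from 10 nM to 30 uM; polarization read at 470 nm excitation, 520 nm emission. Experiments performed three times.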

| Binder | Kd |
| --- | --- |
| B1 | > 0.4 µM and ≤ 1 µM |
| B2 | > 10 µM and ≤ 30 µM |
| B3 | ≤ 0.4 µM |
| B4 | > 0.4 µM and ≤ 1 µM |
| B5 | > 0.4 µM and ≤ 1 µM |
| B6 | ≤ 0.4 µM |
| B7 | > 0.4 µM and ≤ 1 µM |
| B8 | > 0.4 µM and ≤ 1 µM |
| B9 | > 0.4 µM and ≤ 1 µM |
| B10 | ≤ 0.4 µM |
| B11 | > 0.4 µM and ≤ 1 µM |
| B12 | ≤ 0.4 µM |
| B13 | ≤ 0.4 µM |
| B14 | ≤ 0.4 µM |
| B15 | ≤ 0.4 µM |
| B16 | > 0.4 µM and ≤ 1 µM |
| B17 | > 10 µM and ≤ 30 µM |
| B18 | ≤ 0.4 µM |
| B19 | > 0.4 µM and ≤ 1 µM |
| B20 | > 0.4 µM and ≤ 1 µM |
| B21 | > 0.4 µM and ≤ 1 µM |
